# In PMC3464217, “Anti-HIV Double Variable Domain Immunoglobulins Binding Both gp41 and gp120 for Targeted Delivery of Immunoconjugates” (PLoS ONE, 2012):
# Target: T1, recombinant gp160 (HIV-1 group M subtype B, IIIB (clone …, UniProt P03375, strain))
# T1 construct: also called rgp160; source: bought: Quality Biological; recombinant, expressed in mammalian cells
# Experiment: SPR
# Conditions: both partners purified
binder,measurement,value
"7B2 (antibody, V domains shown, also called anti-gp41 Ab (7B2); 7B2 parent; source: 293F cells, transiently transfected; purified from supernatant on Protein A agarose) VH: QVQLVQSGGGVFKPGGSLRLSCEASGFTFTEYYMTWVRQAPGKGLEWLAYISKNGEYSKYSPSSNGRFTISRDNAKNSVFLQLDRLSADDTAVYYCARADGLTYFSELLQYIFDLWGQGARVTVSS VL: DIVMTQSPDSLAVSPGERATIHCKSSQTLLYSSNNRHSIAWYQQRPGQPPKLLLYWASMRLSGVPDRFSGSGSGTDFTLTINNLQAEDVAIYYCHQYSSHPPTFGHGTRVELR",binding result,binds
